This note sets out measurements from patent US20200407442A1 (WUXI BIOLOGICS IRELAND, published 2020).

One assay concerns the target T1, Variant 2: xPro1.FL-x2 (human; mouse).
T1 construct: Chimeric full-length LAG-3 on transfected 293F cells
T1 chain: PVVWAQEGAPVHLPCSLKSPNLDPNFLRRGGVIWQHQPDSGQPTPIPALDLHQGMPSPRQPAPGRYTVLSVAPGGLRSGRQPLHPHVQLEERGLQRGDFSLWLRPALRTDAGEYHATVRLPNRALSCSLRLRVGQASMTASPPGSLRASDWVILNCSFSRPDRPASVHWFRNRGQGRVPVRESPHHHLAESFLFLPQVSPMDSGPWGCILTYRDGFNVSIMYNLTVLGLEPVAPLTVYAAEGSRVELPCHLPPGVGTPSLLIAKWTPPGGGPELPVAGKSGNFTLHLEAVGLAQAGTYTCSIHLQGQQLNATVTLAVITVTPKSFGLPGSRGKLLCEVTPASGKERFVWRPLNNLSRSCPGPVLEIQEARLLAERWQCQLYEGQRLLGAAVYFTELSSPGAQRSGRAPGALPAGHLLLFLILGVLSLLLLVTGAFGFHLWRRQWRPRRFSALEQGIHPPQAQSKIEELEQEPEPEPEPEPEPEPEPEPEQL
Kind of assay: FACS, 1 ug/mL antibody, transfected 293F cells. As to the method:
(§1) The 10 variants were cloned into pcDNA3 vector and used for 293F cell transfection. Briefly, 293F cells were diluted to a density of 1×10⁶ cells/mL with FreeStyle 293F medium and aliquots of 3 mL/well were added to 24-well plate. Transfections were performed using 293fectin reagent (Life Technologies). For each transfection, 3 μg of DNA were diluted in 150 μOpti-MEM I-reduced serum medium (Life Technologies), and then combined with 6μL 293fectin reagent pre-diluted in 150 μL Opti-MEM I reduced serum medium. The DNA/[…] mixture was allowed to stand at 25° C. for 20 min before being added to the culture. The transfected cells were analyzed by flow cytometry at 48 h post-transfection.
(§2) Binding of antibodies to chimeric LAG-3 variants or full length human/mouse LAG-3 was analyzed by flow cytometry. Briefly, 1 μg/mL antibodies were incubated with chimeric LAG-3-expressing transfected 293F cells for 1 hour at 4° C., and then incubated with 3 μg/mL goat anti-human IgG Fc R-PE (Jackson) for 40 min at 4° C. Cells were analyzed with flow cytometer.

For another assay, the target named is T2, Variant 10: xPro1.FL-x10 (human; mouse).
T2 construct: Chimeric full-length LAG-3 on transfected 293F cells
T2 chain: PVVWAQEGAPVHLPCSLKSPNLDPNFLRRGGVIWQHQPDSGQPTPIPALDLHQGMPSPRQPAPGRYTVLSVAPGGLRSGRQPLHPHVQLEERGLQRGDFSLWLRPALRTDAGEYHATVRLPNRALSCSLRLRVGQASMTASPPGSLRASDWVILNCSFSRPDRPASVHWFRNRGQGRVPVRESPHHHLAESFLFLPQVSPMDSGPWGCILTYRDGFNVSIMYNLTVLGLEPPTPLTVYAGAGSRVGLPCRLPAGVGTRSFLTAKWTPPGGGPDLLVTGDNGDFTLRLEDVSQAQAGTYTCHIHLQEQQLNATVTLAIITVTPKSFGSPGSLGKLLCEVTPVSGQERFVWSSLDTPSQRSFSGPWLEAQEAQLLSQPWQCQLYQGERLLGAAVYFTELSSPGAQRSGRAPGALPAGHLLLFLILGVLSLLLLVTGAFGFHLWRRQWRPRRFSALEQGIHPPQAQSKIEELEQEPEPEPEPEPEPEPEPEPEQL
Briefly: FACS, 1 ug/mL antibody, transfected 293F cells. As to the method:
as §1, §2
Background: Flow cytometry measures light scatter and fluorescence of single cells or particles in a stream.

In a further assay the target is T3, human CD4 (human, UniProt P01730 26-390, limits assumed).
T3 construct: also called human CD4 protein
Briefly: ELISA on plate-coated human CD4, OD450. As to the method:
Cross-reactivity to human CD4 was measured by ELISA. Plates were coated with human CD4 at 1μg/mL overnight at 4° C. After blocking and washing, 1 μg/mL of LAG-3 antibodies were added to the plates and incubated at room temperature for 1 h. The plates were then washed and subsequently incubated with corresponding secondary antibody for 45 min. After washing, TMB substrate was added and the color reaction was stopped by 2 M HCl. The absorbance at 450 nm was read using a microplate reader.
A general note: ELISA stands for enzyme-linked immunosorbent assay.

The target of assay [1] is T4, human LAG-3 protein (SPR analyte) (human, UniProt P18627 30-450).
T4 sequence: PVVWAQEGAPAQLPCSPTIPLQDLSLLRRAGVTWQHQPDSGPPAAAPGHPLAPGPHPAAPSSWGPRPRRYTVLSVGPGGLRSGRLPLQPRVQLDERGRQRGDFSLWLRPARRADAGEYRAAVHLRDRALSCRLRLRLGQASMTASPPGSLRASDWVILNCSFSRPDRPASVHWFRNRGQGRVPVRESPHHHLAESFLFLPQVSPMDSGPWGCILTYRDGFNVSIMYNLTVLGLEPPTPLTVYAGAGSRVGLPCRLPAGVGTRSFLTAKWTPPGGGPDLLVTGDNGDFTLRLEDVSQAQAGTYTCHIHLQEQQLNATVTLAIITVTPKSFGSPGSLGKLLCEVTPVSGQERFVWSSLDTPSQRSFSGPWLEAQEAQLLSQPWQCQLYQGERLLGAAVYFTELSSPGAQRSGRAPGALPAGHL
Briefly: SPR Biacore 8K, antibody captured by anti-human Fc, LAG-3 as analyte. The method, then:
Antibodies were characterized for affinity and binding kinetics to human LAG-3 by SPR assay using Biacore 8K. Goat anti-human Fc was pre-immobilized to a sensor chip (CMS), and anti-LAG-3 antibodies were captured when injected to the chip. Various concentrations of human LAG-3 protein and running buffer were flowed through the sensor chip at a flow rate of 30 μL/min for an association phase of 300 s, followed by 3600 s dissociation. The association and dissociation curve was fit by 1:1 Langmuir binding model using Biacore 8K Evaluation Software.
(In general: In SPR one partner is held on a chip, and binding of the other changes the refractive index at the surface.)

B1: 3.40.19-uAb-IgG4L (antibody, V domains shown)
VH: QLQLQESGPGLVKPSETLSLTCTVSGDSISSTSYYWGWIRQPPGKGLEWIGSFYYSGSTYYNPSLKSRVTISVDTSKNQFSLKLNSVTAADTAVYYCARMQLWSYDVDVWGQGTTVTVSS
VL: QSALTQPASVSGSPGQSITISCTGTSSDVGGYDYVAWYQQHPGKVPKLMIYDVSERPSGVSNRFSGSKSGNTASLTISGLQAEDEADYYCSSYTSTTTLVVFGGGTKLSVL
notes: Fully human antibody from OMT rats; IgG4 lambda by its name; also called 3.40.19-uAb-hIgG4L
As usually defined, the Kd is a measure of binding affinity in units of concentration. Read a high Kd as a looser complex. For orientation: koff means the rate constant with which the complex falls apart. Read a high koff as fast dissociation. As a reminder, the kon is the rate constant with which the complex forms. For the molecule B1, in the assay with Variant 2: xPro1.FL-x2, the MFI turned out to be 40.6 and the “PE+ %” value worked out at 0.305%. Moreover, in the assay with Variant 10: xPro1.FL-x10, the MFI came to 68.5 and the “PE+ %” value came to 0.988%. For the same molecule, the binding result in the assay with human CD4 is recorded as “no binding (tested: 66.7 nM)”. Further, in assay [1], binding was put at a Kd of 0.0106 nM, the koff is 1.11e-05 s⁻¹ and the kon amounted to 1.05e+06 M⁻¹ s⁻¹.

B2: 1.53.3-uAb-IgG4k (antibody, V domains shown)
VH: QVQLQQWGAGLLKPSETLSLTCGVYGGSFSGYYWSWIRQPPGMGLEWIGEINHRGNTNYNPSLKSRVTISEDTSKNQFSLRLSSVTAADTAVYFCTRGEDYSDYDYYGDFWGQGTLVTVSS
VL: EIVLTQSPATLSLSQGERATLSCRASQSISSYLAWYQQKPGQAPRLLIYAASNRATGIPARFSGSGSGTDFTLTISSLEPEDFAIYYCQQRSNWPLTFGGGTKVEIK
notes: Fully human antibody from OMT rats; IgG4 kappa by its name
Take B2: in the assay with Variant 2: xPro1.FL-x2, the MFI was 45 and the “PE+ %” value was found to be 1.77%. For the same molecule, in the assay with Variant 10: xPro1.FL-x10, the MFI came out at 42.3 and the “PE+ %” value was found to be 1.98%. For the same molecule, the binding result in the assay with human CD4 is on record as “no binding (tested: 66.7 nM)”. In assay [1], this molecule registered a Kd of 0.0505 nM, a koff of 3.33e-05 s⁻¹ and a kon of 660000 M⁻¹ s⁻¹.
